1 molecule from publication PMC7473174 (Cell reports, 2020) can be followed below.

For the assay, the target named is GST-(TEV)-ZGRF1-(His)6 (human, UniProt Q86YA3 1-2104). As to the kind of experiment: pull-down.
Chain of GST-(TEV)-ZGRF1-(His)6 (Q86YA3 whole entry): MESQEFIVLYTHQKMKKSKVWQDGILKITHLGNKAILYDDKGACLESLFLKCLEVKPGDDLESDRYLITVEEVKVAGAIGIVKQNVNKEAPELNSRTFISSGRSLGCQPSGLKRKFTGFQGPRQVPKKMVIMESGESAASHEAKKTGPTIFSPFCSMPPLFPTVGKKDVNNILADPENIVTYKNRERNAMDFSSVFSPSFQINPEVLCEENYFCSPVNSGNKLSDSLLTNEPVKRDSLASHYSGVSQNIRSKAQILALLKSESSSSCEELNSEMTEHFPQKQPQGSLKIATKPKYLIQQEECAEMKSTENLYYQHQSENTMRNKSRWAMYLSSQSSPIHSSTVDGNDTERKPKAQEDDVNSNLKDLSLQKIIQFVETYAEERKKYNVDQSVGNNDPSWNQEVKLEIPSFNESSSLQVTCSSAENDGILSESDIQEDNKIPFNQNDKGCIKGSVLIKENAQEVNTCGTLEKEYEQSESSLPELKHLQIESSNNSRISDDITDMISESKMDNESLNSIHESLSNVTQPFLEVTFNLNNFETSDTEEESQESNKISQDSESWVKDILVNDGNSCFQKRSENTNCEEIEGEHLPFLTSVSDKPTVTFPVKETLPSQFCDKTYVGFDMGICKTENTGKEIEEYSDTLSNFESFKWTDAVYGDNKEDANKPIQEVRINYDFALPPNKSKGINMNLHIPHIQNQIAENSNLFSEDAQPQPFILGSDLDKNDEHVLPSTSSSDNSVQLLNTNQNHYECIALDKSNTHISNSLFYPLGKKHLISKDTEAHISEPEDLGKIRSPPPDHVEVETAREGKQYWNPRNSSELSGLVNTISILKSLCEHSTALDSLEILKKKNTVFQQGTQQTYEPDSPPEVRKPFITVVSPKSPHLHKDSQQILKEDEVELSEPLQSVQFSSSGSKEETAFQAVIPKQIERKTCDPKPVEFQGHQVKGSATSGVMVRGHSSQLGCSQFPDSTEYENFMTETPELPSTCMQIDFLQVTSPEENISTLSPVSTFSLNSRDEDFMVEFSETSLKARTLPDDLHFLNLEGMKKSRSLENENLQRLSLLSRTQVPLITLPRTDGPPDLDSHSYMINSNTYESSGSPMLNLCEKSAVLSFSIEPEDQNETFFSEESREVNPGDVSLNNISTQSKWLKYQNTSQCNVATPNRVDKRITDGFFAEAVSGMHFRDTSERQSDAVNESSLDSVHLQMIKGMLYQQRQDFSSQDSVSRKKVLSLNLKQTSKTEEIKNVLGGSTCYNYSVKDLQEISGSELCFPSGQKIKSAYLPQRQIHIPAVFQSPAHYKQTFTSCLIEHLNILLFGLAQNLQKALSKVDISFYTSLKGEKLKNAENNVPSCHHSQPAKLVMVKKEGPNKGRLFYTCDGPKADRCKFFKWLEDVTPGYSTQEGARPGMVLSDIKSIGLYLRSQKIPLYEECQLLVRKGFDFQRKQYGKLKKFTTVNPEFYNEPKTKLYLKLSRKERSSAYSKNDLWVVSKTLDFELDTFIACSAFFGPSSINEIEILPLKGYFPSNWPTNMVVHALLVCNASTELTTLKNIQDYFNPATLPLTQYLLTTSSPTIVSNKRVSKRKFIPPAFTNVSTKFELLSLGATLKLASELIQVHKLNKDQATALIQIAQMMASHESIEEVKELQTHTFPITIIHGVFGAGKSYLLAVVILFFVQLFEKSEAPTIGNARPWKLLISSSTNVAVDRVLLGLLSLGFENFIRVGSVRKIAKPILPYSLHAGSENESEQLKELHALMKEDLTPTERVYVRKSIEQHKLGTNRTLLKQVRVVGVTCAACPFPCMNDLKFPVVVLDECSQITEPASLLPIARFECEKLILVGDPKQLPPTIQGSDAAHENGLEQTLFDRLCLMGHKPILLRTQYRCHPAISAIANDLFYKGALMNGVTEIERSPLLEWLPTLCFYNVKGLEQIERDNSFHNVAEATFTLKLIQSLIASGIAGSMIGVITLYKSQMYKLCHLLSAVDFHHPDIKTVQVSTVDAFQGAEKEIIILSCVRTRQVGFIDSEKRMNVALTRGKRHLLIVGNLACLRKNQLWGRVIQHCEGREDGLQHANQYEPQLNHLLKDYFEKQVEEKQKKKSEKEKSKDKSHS

B1: human RAD51 (natural protein, UniProt Q06609 1-339, looked up)
chain: MAMQMQLEANADTSVEEESFGPQPISRLEQCGINANDVKKLEEAGFHTVEAVAYAPKKELINIKGISEAKADKILAEAAKLVPMGFTTATEFHQRRSEIIQITTGSKELDKLLQGGIETGSITEMFGEFRTGKTQICHTLAVTCQLPIDRGGGEGKAMYIDTEGTFRPERLLAVAERYGLSGSDVLDNVAYARAFNTDHQTQLLYQASAMMVESRYALLIVDSATALYRTDYSGRGELSARQMHLARFLRMLLRLADEFGVAVVITNQVVAQVDGAAMFAADPKKPIGGNIIAHASTTRLYLRKGRGETRICKIYDSPCLPEAEAMFAINADGVGDAKD
B1: the binding result was “binds”.
